Measured values published in publication PMC11082093, “A 3′‐pre‐tRNA‐derived small RNA tRF‐1‐Ser regulated by 25(OH)D promotes proliferation and stemness by inhibiting the function of MBNL1 in breast cancer”.

T1: MBNL1 recombinant (UniProt Q9NR56 1-388)
T1 sequence: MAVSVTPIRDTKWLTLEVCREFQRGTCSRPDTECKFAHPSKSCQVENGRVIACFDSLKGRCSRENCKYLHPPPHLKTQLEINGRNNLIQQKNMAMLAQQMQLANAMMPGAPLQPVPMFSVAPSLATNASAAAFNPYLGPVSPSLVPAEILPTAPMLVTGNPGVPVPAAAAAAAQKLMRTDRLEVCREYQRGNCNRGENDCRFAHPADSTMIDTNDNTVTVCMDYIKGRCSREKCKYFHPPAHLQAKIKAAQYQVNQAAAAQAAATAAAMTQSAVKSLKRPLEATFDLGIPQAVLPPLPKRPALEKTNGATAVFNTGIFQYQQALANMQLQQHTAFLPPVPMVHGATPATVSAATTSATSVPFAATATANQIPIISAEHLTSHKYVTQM


Tests used:
MBNL1 recombinant [1] = molecular target: T1, MBNL1 recombinant; assay: EMSA; EMSA: REMSA Binding Buffer (Beyotime), 4 °C, 10 min; 6% TBE PAGE in ice box; salt and pH not given; settings: protein: commercial; label: biotin
MBNL1 recombinant [2] = molecular target: T1, MBNL1 recombinant; assay: competition; excess unlabelled vs biotin-labelled tRF-1-Ser; EMSA; EMSA: REMSA Binding Buffer (Beyotime), 4 °C, 10 min; 6% TBE PAGE in ice box; salt and pH not given; settings: protein: commercial

Binder	binding result (MBNL1 recombinant [1])	binding result (MBNL1 recombinant [2])
GAAGCGGGUGCUCUUAUUUU (ssRNA) [tRF-1-Ser]	binds	
GAAGCGGGCAACCUUAUUUU (ssRNA) [tRF-1-Ser-UGCU-mut]	no binding	
GAAGCGGGUGCUCUUAUUUU (ssRNA) [tRF-1-Ser unlabelled (mimic)]		binds
